Test results as given in patent US20090208995.

How the values were obtained:
[1] = test system: T1, recombinant Pro-CE (pro-clotting enzyme, His-Tag at the C-terminus, expressed in expresSF+ insect cells)
T1 sequence: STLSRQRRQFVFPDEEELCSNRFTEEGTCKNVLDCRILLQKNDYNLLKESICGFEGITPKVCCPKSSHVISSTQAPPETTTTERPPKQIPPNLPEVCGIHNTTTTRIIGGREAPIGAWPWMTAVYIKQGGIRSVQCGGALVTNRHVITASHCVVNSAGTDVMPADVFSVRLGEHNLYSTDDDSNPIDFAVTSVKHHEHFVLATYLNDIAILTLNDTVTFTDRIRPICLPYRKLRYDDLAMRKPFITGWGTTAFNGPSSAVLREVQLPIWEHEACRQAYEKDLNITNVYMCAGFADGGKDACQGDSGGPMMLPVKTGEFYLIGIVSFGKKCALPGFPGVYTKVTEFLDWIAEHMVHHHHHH

[2] = test system: Pro-CE derived from a horseshoe crab hemocyte extract (DS-10AII fraction)

## recombinant factor G (culture supernatant; alpha-subunit:beta-subunit = 2:1)
[1]
  Reactivity, Average; CSBG 0 ng/mL: 0.078
  Reactivity, Average; CSBG 1 ng/mL: 0.139
  Reactivity, Average; CSBG 10 ng/mL: 0.532
  Reactivity, endpoint assay, Boc-Leu-Gly-Arg-pNA; CSBG 0 ng/mL, first reading: 0.079
  Reactivity, endpoint assay, Boc-Leu-Gly-Arg-pNA; CSBG 0 ng/mL, second reading: 0.076
  Reactivity, endpoint assay, Boc-Leu-Gly-Arg-pNA; CSBG 1 ng/mL, first reading: 0.14
  Reactivity, endpoint assay, Boc-Leu-Gly-Arg-pNA; CSBG 1 ng/mL, second reading: 0.138
  Reactivity, endpoint assay, Boc-Leu-Gly-Arg-pNA; CSBG 10 ng/mL, first reading: 0.543
  Reactivity, endpoint assay, Boc-Leu-Gly-Arg-pNA; CSBG 10 ng/mL, second reading: 0.52
  Reactivity, ΔA; CSBG 1 ng/mL: 0.061
  Reactivity, ΔA; CSBG 10 ng/mL: 0.454
  hydrolysis of Boc-Leu-Gly-Arg-pNA in the complete reconstitution system with BG: the same enzymatic activity as that of native factor LAL was found to be expressed

## Factor G derived from a horseshoe crab hemocyte extract (DS-3GII fraction)
[2]
  Reactivity, Average; CSBG 0 ng/mL (A 405 to 492 nm): 0.058
  Reactivity, Average; CSBG 1 ng/mL (A 405 to 492 nm): 0.437
  Reactivity, Average; CSBG 10 ng/mL (A 405 to 492 nm): 0.986
  Reactivity, endpoint assay, Boc-Leu-Gly-Arg-pNA; CSBG 0 ng/mL, first reading (A 405 to 492 nm): 0.056
  Reactivity, endpoint assay, Boc-Leu-Gly-Arg-pNA; CSBG 0 ng/mL, second reading (A 405 to 492 nm): 0.06
  Reactivity, endpoint assay, Boc-Leu-Gly-Arg-pNA; CSBG 1 ng/mL, first reading (A 405 to 492 nm): 0.44
  Reactivity, endpoint assay, Boc-Leu-Gly-Arg-pNA; CSBG 1 ng/mL, second reading (A 405 to 492 nm): 0.434
  Reactivity, endpoint assay, Boc-Leu-Gly-Arg-pNA; CSBG 10 ng/mL, first reading (A 405 to 492 nm): 0.969
  Reactivity, endpoint assay, Boc-Leu-Gly-Arg-pNA; CSBG 10 ng/mL, second reading (A 405 to 492 nm): 1
  Reactivity, ΔA; CSBG 1 ng/mL (A 405 to 492 nm): 0.379
  Reactivity, ΔA; CSBG 10 ng/mL (A 405 to 492 nm): 0.928
[1]
  Reactivity, Average; CSBG 0 ng/mL (A 405 to 492 nm): 0.05
  Reactivity, Average; CSBG 1 ng/mL (A 405 to 492 nm): 0.484
  Reactivity, Average; CSBG 10 ng/mL (A 405 to 492 nm): 0.987
  Reactivity, endpoint assay, Boc-Leu-Gly-Arg-pNA; CSBG 0 ng/mL, first reading (A 405 to 492 nm): 0.051
  Reactivity, endpoint assay, Boc-Leu-Gly-Arg-pNA; CSBG 0 ng/mL, second reading (A 405 to 492 nm): 0.049
  Reactivity, endpoint assay, Boc-Leu-Gly-Arg-pNA; CSBG 1 ng/mL, first reading (A 405 to 492 nm): 0.48
  Reactivity, endpoint assay, Boc-Leu-Gly-Arg-pNA; CSBG 1 ng/mL, second reading (A 405 to 492 nm): 0.487
  Reactivity, endpoint assay, Boc-Leu-Gly-Arg-pNA; CSBG 10 ng/mL, first reading (A 405 to 492 nm): 0.988
  Reactivity, endpoint assay, Boc-Leu-Gly-Arg-pNA; CSBG 10 ng/mL, second reading (A 405 to 492 nm): 0.986
  Reactivity, ΔA; CSBG 1 ng/mL (A 405 to 492 nm): 0.434
  Reactivity, ΔA; CSBG 10 ng/mL (A 405 to 492 nm): 0.937
  enzymatic activity with DS-3GII fraction and BG: the recombinant Pro-CE exhibited an enzymatic activity almost equivalent to that of Pro-CE derived from a horseshoe crab hemocyte extract
